Measurements taken from article PMC5114622, “In vivo protein interaction network analysis reveals porin-localized antibiotic inactivation in Acinetobacter baumannii strain AB5075” (Nature Communications, 2016).
Values joined by “and” are separate entries in the source; they are usually repeats but may differ in a detail not shown here. Equal entries are not always repeated.

Molecular target: the molecule itself
Assay: cross-linking + co-IP; AB5075-pMMB-oxa23 cells cross-linked with BDP-NHP, lysates denatured with SDS, anti-HA agarose IP; immunoblots with anti-HA, anti-OmpA, streptavidin; DMSO-treated control

B1: Oxa23-HA-Strep (enzyme)
chain: CTVQHNLINETPSQIVQGHNQVIHQYFDEKNTSGVLVIQTDKKINLYGNALSRANTEYVPASTFKMLNALIGLENQKTDINEIFKWKGEKRSFTAWEKDMTLGEAMKLSAVPVYQELARRIGLDLMQKEVKRIGFGNAEIGQQVDNFWLVGPLKVTPIQEVEFVSQLAHTQLPFSEKVQANVKNMLLLEESNGYKIFGKTGWAMDIKPQVGWLTGWVEQPDGKIVAFALNMEMRSEMPASIRNELLMKSLKQLNII
notes: Oxa-23 of Acinetobacter baumannii AB5075; oxa-23 gene with the TAA stop codon omitted so that the HA-Strep tag of the pMMB vector follows; I take the same for this construct and that the signal peptide is cut on export; also called Oxa-23 with C-terminal HA-Strep tags; tagged Oxa-23; source: A. baumannii AB5075 WT cells transformed with pMMB-oxa23-HA-Strep (AB5075-pMMB-oxa23), in lysate; not …
For B1, the “stoichiometry N” value was 2 and 4.
